{
  "source": "patent US8227212B2",
  "about": "“Cell that expresses a sulfatase and a formylglycine generating enzyme” (Shire Human Genetic Therapies, Inc., priority 2003, dated 2012)",
  "key": {"[1]": {"molecular_target": "T1, FGE (Bos taurus, UniProt Q0P5L5)", "T1 construct": "the soluble fraction (reticuloplasm) of bovine testis microsomes served as the starting material; from tissue; host or cells: bovine testis rough microsomes, reticuloplasm", "T1 sequence (Q0P5L5 34-374)": "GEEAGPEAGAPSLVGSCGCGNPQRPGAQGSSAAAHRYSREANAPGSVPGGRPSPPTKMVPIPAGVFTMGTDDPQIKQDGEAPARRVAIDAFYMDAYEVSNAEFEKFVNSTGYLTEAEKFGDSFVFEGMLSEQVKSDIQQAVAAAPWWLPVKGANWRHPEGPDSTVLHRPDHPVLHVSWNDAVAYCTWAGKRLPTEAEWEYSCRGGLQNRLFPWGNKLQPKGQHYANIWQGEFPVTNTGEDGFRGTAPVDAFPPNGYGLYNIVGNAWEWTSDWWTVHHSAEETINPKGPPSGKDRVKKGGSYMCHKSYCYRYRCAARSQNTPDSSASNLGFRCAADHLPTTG", "assay": "Affinity matrices: Affigel 10 derivatized with 16mer peptides, binding of FGE", "design": "species or system bovine", "procedure": "Bovine testes were obtained from the local slaughter house and stored for up to 20 h on ice. The parenchyme was freed from connective tissue and homogenized in a waring blendor and by three rounds of motor pottering. Preparation of rough microsomes (RM) by cell fractionation of the obtained homogenate was performed as described (Meyer et al., J. Biol. Chem., 2000, 275:14550-14557) with the following modifications. Three differential centrifugation steps, 20 minutes each at 4° C., were performed at 500 g (JA10 rotor), 3000 g (JA10) and 10000 g (JA20). From the last supernatant the RM membranes were sedimented (125000 g, Ti45 rotor, 45 min, 4° C.), homogenized by motor pottering and layered on a sucrose cushion (50 mM Hepes, pH 7.6, 50 mM KAc, 6 mM MgAc2, 1 mM EDTA, 1.3 M sucrose, 5 mM β-mercaptoethanol). RMs were recovered from the pellet after spinning for 210 minutes at 45000 rpm in a Ti45 rotor at 4° C. Usually 100000-150000 equivalents RM, as defined by Walter and Blobel (Methods Enzymol.,1983, 96:84-93), were obtained from 1 kg of testis tissue. The reticuloplasm, i.e. the luminal content of the RM, was obtained by differential extraction at low concentrations of deoxy Big Chap, as described (Fey et al., J. Biol. Chem., 2001, 276:47021-47028). For FGE purification, 95 ml of reticuloplasm were dialyzed for 20 h at 4° C. against 20 mM Tris/HCl, pH 8.0, 2.5 mM DTT, and cleared by centrifugation at 125000 g for 1 h. 32 ml-aliquots of the cleared reticuloplasm were loaded on a MonoQ HR10/10 column (Amersham Biosciences, Piscataway, N.J.) at room temperature, washed and eluted at 2 ml/min with a linear gradient of 0 to 0.75 M NaCl in 80 ml of the Tris buffer. […] An aliqout of the eluate was substituted with 1 mg/ml bovine serum albumin, dialyzed against buffer A and analyzed for activity. […] The polypeptide composition of the starting material and preparations obtained after the chromatographic steps were monitored by SDSPAGE (15% acrylamide, 0.16% bisacrylamide) and staining with SYPRO Ruby (Bio-Rad Laboratories). […]"}, "[2]": {"molecular_target": "T1, FGE", "assay": "In vitro FGE activity assay with [35S] ASA fragments (ribosome-associated nascent chain complexes) as substrate", "assay_type": "biochemical, bovine", "procedure": "We had developed an assay for determining FGE activity in microsome extracts using in vitro synthesized [^35S] ASA fragments as substrate. The fragments were added to the assay mixture as ribosome-associated nascent chain complexes. The quantitation of the product included tryptic digestion, separation of the peptides by RP-HPLC and identification and quantitation of the [^35S]-labeled FGly containing tryptic peptide by a combination of chemical derivatization to hydrazones, RP-HPLC separation and liquid scintillation counting (Fey et al., J. Biol. Chem., 2001, 276:47021-47028). For monitoring the enzyme activity during purification, this cumbersome procedure needed to be modified. […] We synthesized the 23mer peptide P23 (SEQ ID NO:33), which corresponds to ASA residues 60-80 with an additional N-acetylated methionine and a C-amidated serine residue to protect the N- and C-terminus, respectively. The cysteine and the FGly containing forms of P23 could be identified and quantified by matrix-assisted laser desorption/ionisation time of flight (MALDI-TOF) mass spectrometry. The presence of the FGly residue in position 11 of P23 was verified by MALDI-TOF post source decay mass spectrometry (see Peng et al., J. Mass Spec., 2003, 38:80-86). […]"}, "[3]": {"molecular_target": "T1, FGE", "assay": "In vitro assay for FGE with peptide P23 as substrate (MALDI-TOF)", "assay_type": "biochemical", "conditions": "incubation with extracts from microsomes of bovine pancreas or bovine testis", "procedure": "For monitoring the activity of FGE, the N-acetylated and C-amidated 23mer peptide P23 ([…]) (SEQ ID NO:33) was used as substrate. The conversion of the Cysteine residue in position 11 to FGly was monitored by MALDI-TOF mass spectrometry. A 6 μM stock solution of P23 in 30% acetonitrile and 0.1% trifluoroacetic acid (TFA) was prepared. Under standard conditions 6 pmol of P23 were incubated at 37° C. with up to 10 μl enzyme in a final volume of 30 μl 50 mM Tris/HCl, pH 9.0, containing 67 mM NaCl, 15 μM CaCl2, 2 mM DTT, and 0.33 mg/ml bovine serum albumin. To stop the enzyme reaction 1.5 μl 10% TFA were added. […] Activity (pmol product/h) was calculated on the basis of the peak height of the product divided by the sum of the peak heights of P23 and the product.\nWe had developed an assay for determining FGE activity in microsome extracts using in vitro synthesized [^35S] […] The quantitation of the product included tryptic digestion, separation of the peptides by RP-HPLC and identification and quantitation of the [^35S]-labeled FGly containing tryptic peptide by a combination of chemical derivatization to hydrazones, RP-HPLC separation and liquid scintillation counting (Fey et al., J. Biol. Chem., 2001, 276:47021-47028). […] The cysteine and the FGly containing forms of P23 could be identified and quantified by matrix-assisted laser desorption/ionisation time of flight (MALDI-TOF) mass spectrometry. […]"}, "[4]": {"test_system": "ARSA, ARSC and ARSE", "assay": "Co-expression of FGE (SUMF1) and sulfatase cDNAs in cell lines, sulfatase activities", "assay_type": "cell-based, human", "conditions": "co-transfection with ARSA, ARSC and ARSE cDNAs in various cell lines", "from_the_text": "To test the effect of FGE (SUMF1) on additional sulfatase activities in normal cells we overexpressed ARSA (SEQ ID NO:14), ARSC (SEQ ID NO:18) and ARSE (SEQ ID NO:22) cDNAs in various cell lines with and without co-transfection of the FGE (SUMF1) cDNA and measured sulfatase activities.\nTo test for functional conservation of the FGE (SUMF1) gene during evolution we overexpressed ARSA, ARSC and ARSE cDNAs in various cell lines with and without co-transfection of the […] and measured sulfatase activities."}},
  "note": "Where two headings read alike, the source gives them in different places.",
  "data": [
    {"substance": "ASA65-80: synthetic 16mer peptide corresponding to ASA residues 65-80 containing the sequence motif required for FGly formation (PVSLCTPSRAALLTGR)", "values": [
      {"measurement": "binding of FGE to peptide immobilized to Affigel 10", "setting": "[1]", "result": "bound FGE efficiently"},
      {"measurement": "inhibition of FGE activity", "setting": "[2]", "result": "inhibited the FGE activity"}
    ]},
    {"substance": "Ac-MTDFYVPVSLCTPSRAALLTGRS-NH2 [P23]", "values": [
      {"measurement": "conversion of the peptide into a FGly containing derivative", "setting": "[3]", "result": "up to 95%"}
    ]},
    {"substance": "FGE2 (SUMF2): FGE gene paralog located on human chromosome 7 (SEQ ID NOs: 45, 46)", "values": [
      {"measurement": "activity of FGE homologs on overexpressed human sulfatases", "setting": "[4]", "result": "much weaker"}
    ]},
    {"substance": "Ser69 peptide: variant of ASA65-80 with Cys69 replaced by serine, PVSLSTPSRAALLTGR (SEQ ID NO:35) (a variant of the ASA65-80 peptide, in which the Cys69 was replaced by a Serine)", "values": [
      {"measurement": "binding of FGE to peptide immobilized to Affigel 10", "setting": "[1]", "result": "efficiently bound FGE"}
    ]},
    {"substance": "scrambled peptide: variant of ASA65-80 with Cys69, Pro71 and Arg73 scrambled, PVSLPTRSCAALLTGR (SEQ ID NO:34) (a variant of the ASA65-80 peptide, in which residues Cys69, Pro71 and Arg73, critical for FGly formation, were scrambled)", "values": [
      {"measurement": "binding of FGE to peptide immobilized to Affigel 10", "setting": "[1]", "result": "did not retain FGE activity"},
      {"measurement": "inhibition of FGE activity", "setting": "[2]; added at 10 mM concentration", "result": "did not inhibit FGE activity"}
    ]}
  ]
}
